In article PMC6381839:

Biological target: GoxA (glycine oxidase) from Pseudoalteromonas luteoviolacea, glycine-soaked (Gly-GoxA) (Pseudoalteromonas luteoviolacea)
Test: crystal structure

stoichiometry N: 4
Substance: GoxA (glycine oxidase) from Pseudoalteromonas luteoviolacea, glycine-soaked (Gly-GoxA) (enzyme)
